Assay results published in patent US20020103111A1, “Inhibitors of MAdCAM-1-mediated interactions and methods of use therefor” (Millennium Pharmaceuticals, Inc., priority 1996, published 2002).
Square brackets hold non-standard residues; d marks the D form. Ends that are not written are not given here. NMeL = CN[C@@H](CC(C)C)C(=O)O

These substances were tested against human α4β7 integrin (human) (UniProt P13612) (assay: inhibition of HUT 78 cell adhesion to murine MAdCAM-1/mCk).

Substance	IC50 [µM]
Pba-Asp-Thr (peptide)	13.5
Ac-[NMeL]LDTSL	1320
Pca-Asp-Thr (peptide)	11
2-Anc-Leu-Asp-Thr-Ser-Leu (peptide)	5.4
Dphb-Leu-Asp-Thr-Ser-Leu (peptide)	15
Cpc-Asp-Thr-Ser-Leu (peptide)	8.9
Pca-Leu-Asp-Thr-Ser-Leu (peptide)	2.1
Ac-MeLeu-Asp-Thr-Ser-Leu (peptide)	150
Pba-Leu-Asp-Thr-Ser-Leu (00789-1A) (peptide)	4
Pba-Asp-Thr-Ser-Leu (peptide)	13.3
[NMeL]LDTSL	256

What follows are substances tested against human α4β7 integrin (human) (UniProt P13612) (assay: inhibition of HUT 78 cell adhesion to murine MAdCAM-1/mCk at 100 µM).

Substance	% Adhesion Inhibition [%]
Pba-Asp-Thr (peptide)	100
Pba-Asp-Thr-Ser-Leu (peptide)	100

What follows are substances tested against human α4β7 integrin (human) (UniProt P13612) (assay: inhibition of HUT 78 cell adhesion to murine MAdCAM-1/mCk at 500 µM).

Substance	% Adhesion Inhibition [%]
H-WRGLDTSLGS	76
Ac-Lle-Asp-Thr-Ser-Leu (peptide)	17
Ac-RVHWRGLDTSLGSVQ	88
Ac-RGLDTSLG	75
Ac-[NMeL]LDTSL	28
H-RVHWRGLDTSLGSVQ	90
NH2-Leu-Asp-Thr-Ser-Leu (peptide)	22
H-HWRGLDTSLGSV	80
Ac-WRGLDTSLGS	71
Ac-HWRGLDTSLGSV	71
[NMeL]LDTSL	54

Each substance was assayed against human α4β7 integrin (human) (UniProt P13612) (assay: RPMI 8866 adhesion to chimera on Protein A; neat; after control MAb 2G7).

Substance	bound cells (raw fluorescence)
human MAdCAM-1-IgG chimera (huMAdCAM-1-Ig, construct HuMAdIg21) (from UniProt P01857 1-330) (Fc fusion)	196000
